According to paper PMC5761661 (Biochemistry, 2017):
Read-outs that look alike come from different tables or passages of the source.

What was measured:
[1] = target: IpaD (invasion plasmid antigen D) (Shigella flexneri, UniProt P18013); experiment: fluorescence polarization, single site saturation fit; format: binding; details: read-out: Kd (μM) ± SD ^a; labelled compound; 25 nM FITC-DOC, 0-30 μM IpaD, PBS, 23 °C, 30 min
[2] = target: IpaB^28–226-Alexa568 (Shigella flexneri); experiment: fluorescence polarisation
[3] = target: IpaB^28–226-Alexa568 (Shigella flexneri); experiment: fluorescence polarisation; remark: listed apart in the source

| Substance | Kd [1] | Kd [2] | Kd [3] |
| --- | --- | --- | --- |
| FITC-deoxycholate | 9.3 ± 1.8 µM | – | – |
| IpaD D144A/N146A/Y149A triple mutant (from UniProt P18013 1-332) (natural protein) | – | 2.2 µM | 7.4 µM |
| IpaD Y149A (from UniProt P18013 1-332) (natural protein) | – | 0.5 µM | – |
| Wild-type IpaD (invasion plasmid antigen D) (from UniProt P18013 1-332) (natural protein) | – | 2 µM | – |
